One block for each binder: values may come before it.
Columns and labels:
[1] = molecular target: T1, huPCSK9-His，重组人PCSK9胞外区His融合蛋白 (human, UniProt Q8NBP7 31-692, biotin-labelled in the ELISA and in the LDL-R blocking assay (sites not given)); test: cell-based or functional assay
[2] = molecular target: T1, huPCSK9-His，重组人PCSK9胞外区His融合蛋白; test: ELISA, biotin-labelled PCSK9-His captured on neutravidin-coated plate
[3] = molecular target: T2, cyPCSK9，猕猴PCSK9胞外区His融合蛋白 (猕猴 (macaque), UniProt A8T662 31-692, biotin-labelled in the ELISA (sites not given)); test: as above
T2 construct: Bought (Novoprotein CA87); The printed entry includes the His tag

[4] = molecular target: T1, huPCSK9-His，重组人PCSK9胞外区His融合蛋白; test: BLI (ForteBio), chF3-9 captured on anti-human Fc (AHC) sensor, PCSK9 in solution, 1:1 global fit
[5] = molecular target: T2, cyPCSK9，猕猴PCSK9胞外区His融合蛋白; test: as above

T1 sequence (Q8NBP7 other isoform, or with tags, fused parts or gaps limits assumed): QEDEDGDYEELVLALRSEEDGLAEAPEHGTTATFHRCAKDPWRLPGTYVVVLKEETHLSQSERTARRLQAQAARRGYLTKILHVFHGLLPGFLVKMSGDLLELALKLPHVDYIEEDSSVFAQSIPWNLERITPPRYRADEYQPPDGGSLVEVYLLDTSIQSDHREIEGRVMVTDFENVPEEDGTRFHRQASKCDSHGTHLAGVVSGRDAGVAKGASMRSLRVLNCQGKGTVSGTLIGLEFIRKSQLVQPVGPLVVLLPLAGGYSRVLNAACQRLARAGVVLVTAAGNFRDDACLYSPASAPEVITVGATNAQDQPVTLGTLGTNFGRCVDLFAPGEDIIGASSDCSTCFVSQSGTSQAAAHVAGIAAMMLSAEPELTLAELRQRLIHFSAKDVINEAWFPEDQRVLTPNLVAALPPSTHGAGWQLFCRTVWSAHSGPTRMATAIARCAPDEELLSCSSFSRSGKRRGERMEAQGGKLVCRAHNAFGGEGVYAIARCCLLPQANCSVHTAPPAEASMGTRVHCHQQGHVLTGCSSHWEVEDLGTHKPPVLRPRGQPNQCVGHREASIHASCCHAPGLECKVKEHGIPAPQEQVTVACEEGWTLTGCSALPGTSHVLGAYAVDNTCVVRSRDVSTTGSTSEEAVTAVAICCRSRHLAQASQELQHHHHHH
T2 sequence (A8T662 other isoform, or with tags, fused parts or gaps limits assumed, form in doubt): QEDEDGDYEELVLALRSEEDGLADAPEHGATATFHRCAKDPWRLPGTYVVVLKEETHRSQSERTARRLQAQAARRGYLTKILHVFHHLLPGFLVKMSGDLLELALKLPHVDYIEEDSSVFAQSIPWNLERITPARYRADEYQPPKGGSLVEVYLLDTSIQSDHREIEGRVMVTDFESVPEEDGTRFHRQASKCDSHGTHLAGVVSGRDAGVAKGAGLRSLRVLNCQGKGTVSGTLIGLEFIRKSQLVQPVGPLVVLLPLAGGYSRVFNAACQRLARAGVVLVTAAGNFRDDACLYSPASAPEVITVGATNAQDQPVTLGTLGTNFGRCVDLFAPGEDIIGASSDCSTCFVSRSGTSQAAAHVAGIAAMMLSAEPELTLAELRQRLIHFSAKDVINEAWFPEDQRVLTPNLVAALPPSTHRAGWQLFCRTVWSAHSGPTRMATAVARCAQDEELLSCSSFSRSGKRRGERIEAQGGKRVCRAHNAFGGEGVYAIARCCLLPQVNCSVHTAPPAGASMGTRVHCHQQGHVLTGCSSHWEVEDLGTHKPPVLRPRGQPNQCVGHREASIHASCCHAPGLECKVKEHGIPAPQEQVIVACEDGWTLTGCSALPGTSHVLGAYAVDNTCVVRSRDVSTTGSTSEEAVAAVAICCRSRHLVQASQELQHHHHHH

有效活性浓度(EC50), antagonism of PCSK9 inhibition of LDL uptake by HepG2 cells [1]: 10 nM
EC50 [2]: 0.68 nM
EC50 [3]: 0.62 nM
B1: 鼠单抗mF3-9 (antibody, V domains shown)
VH: QVQLQQSGAELVRPGSSVKISCKASGYSFSSYWMNWVKQRPGQGLEWIGQIYPGDGDTNFNGKFKGKATLTADKSSSTAYMQLSSLTSEDSAVYFCGNYDYDGEIPYWGQGTTLTVSS
VL: DIFLTQSPAILSVSPGERVNFSCRASQTIGTSLHWYQQRTNGSPRLLIKYASESISGIPSRFSGSGSGTEFTLRINSVESEDIADYYCQQSSKWPLTFGQGTKVEIK
notes: Mouse hybridoma monoclonal antibody; also called 鼠单抗F3-9; 抗体F3-9

Kd [4]: 0.42 nM
Kd [5]: 1.27 nM
B2: 人-鼠嵌合型F3-9抗体(chF3-9) (antibody, IgG2, V domains shown)
VH: B1 VH
VL: B1 VL
notes: also called F3-9嵌合抗体; 嵌合PCSK9抗体F3-9

Source: patent CN106554420A (SHANGHAI UNION BIOPHARM CO LTD; LI JUN, dated 2017)
